The text below walks through data of article PMC10948360.

For orientation: stoichiometry N means a count of units in the complex or per binding partner.

In data set [1] the target is SNAP-tagged full-length kinesin heavy chain (Khc FL), Alexa Fluor 647-labeled (UniProt P17210). Kind of data set: single-molecule TIRF colocalisation and motility assay on microtubules; Khc RNP mixes assembled at 500 nM of each component, diluted to 6.25 nM in BRB12 with 2.5 mM MgATP; taxol-stabilized microtubules immobilized by biotin-streptavidin; Cy3-osk 3′ UTR present. Particulars: other: single-molecule TIRF colocalisation and motility assay on microtubules.
SNAP-tagged full-length kinesin heavy chain (Khc FL), Alexa Fluor 647-labeled, sequence (P17210 whole entry): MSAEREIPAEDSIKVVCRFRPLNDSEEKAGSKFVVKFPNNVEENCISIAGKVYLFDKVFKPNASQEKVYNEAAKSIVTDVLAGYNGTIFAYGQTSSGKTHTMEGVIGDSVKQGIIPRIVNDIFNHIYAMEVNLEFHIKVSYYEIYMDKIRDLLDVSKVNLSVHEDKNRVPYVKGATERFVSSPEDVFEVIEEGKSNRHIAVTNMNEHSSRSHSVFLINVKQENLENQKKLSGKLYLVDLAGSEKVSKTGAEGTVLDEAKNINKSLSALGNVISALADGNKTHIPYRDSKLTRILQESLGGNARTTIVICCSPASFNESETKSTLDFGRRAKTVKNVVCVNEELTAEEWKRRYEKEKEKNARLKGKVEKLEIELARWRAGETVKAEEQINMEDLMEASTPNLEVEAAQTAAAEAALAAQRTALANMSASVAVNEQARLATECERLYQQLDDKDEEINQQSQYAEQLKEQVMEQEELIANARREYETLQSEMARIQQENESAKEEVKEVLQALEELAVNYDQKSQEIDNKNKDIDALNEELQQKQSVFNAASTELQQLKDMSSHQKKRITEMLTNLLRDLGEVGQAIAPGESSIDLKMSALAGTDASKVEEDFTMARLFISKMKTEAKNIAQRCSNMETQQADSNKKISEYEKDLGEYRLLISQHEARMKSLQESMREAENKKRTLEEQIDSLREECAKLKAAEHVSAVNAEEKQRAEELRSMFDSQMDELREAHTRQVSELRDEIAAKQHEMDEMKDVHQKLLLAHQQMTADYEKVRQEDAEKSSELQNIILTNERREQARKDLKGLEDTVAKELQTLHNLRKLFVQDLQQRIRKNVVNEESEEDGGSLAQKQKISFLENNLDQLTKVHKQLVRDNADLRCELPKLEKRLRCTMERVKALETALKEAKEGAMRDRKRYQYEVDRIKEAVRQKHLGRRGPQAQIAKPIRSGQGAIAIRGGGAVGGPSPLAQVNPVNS

Data set [2] addresses SNAP-tagged full-length kinesin heavy chain (Khc FL), Alexa Fluor 647-labeled (Drosophila) (UniProt P17210). The data set is described as above.
The target in data set [3] is Full-length kinesin heavy chain (Khc FL), unlabeled (Drosophila) (UniProt P17210). Kind of data set: mass photometry; coexpressed, copurified Khc–Tm1 complex at 20 nM in PBS.
Full-length kinesin heavy chain (Khc FL), unlabeled (Drosophila), sequence (P17210 whole entry): as above
For data set [4], the target named is SNAP-tagged full-length kinesin heavy chain (Khc FL), Alexa Fluor 647-labeled (Drosophila) (UniProt P17210).
SNAP-tagged full-length kinesin heavy chain (Khc FL), Alexa Fluor 647-labeled (Drosophila), sequence (P17210 whole entry): as above

In the case of “SNAP-tagged full-length Tm1-I/C (Tm1 FL), Alexa Fluor 488-labeled”, the “percent of Khc molecules bound to Tm1, corrected for the labeling efficiency of Tm1” value in data set [1] was ~95% of Khc molecules were bound to Tm1. In data set [2], “SNAP-Tm1 1-335, fluorescently labeled (domain or fragment)” showed a percent of Khc signals colocalized with Tm1 signals of 71%. For “Full-length Tm1-I/C (Tm1 FL) coexpressed and copurified with Khc FL (natural protein)”, the stoichiometry N in data set [3] is 2 Khc per Tm1. On to “SNAP-tagged full-length Tm1-I/C (Tm1 FL), Alexa Fluor 488-labeled (natural protein)”, for which, in data set [2], the percent of Khc signals colocalizing with Tm1 signals worked out at 44.6%. In addition, the mean velocity of microtubule-associated Khc FL complexes in the TIRF motility assay in the presence of Tm1 FL (0.240 µm s^−1 without Tm1) in data set [4] worked out at 0.099 µm s^−1.
